Source: paper PMC12858062 (PLOS Pathogens, 2026)

Legend:
Test in all cases: far-Western, overlay or dot blot; western blot: non-reduced lysate of P. falciparum NF54 iGP2 stage V gametocytes separated by SDS-PAGE, probed with 0.1 µg/mL antibodies for 1 h at RT; HRP anti-human IgG
Settings in all cases: one partner purified
[1] = target: D3-Fc (anti-Pfs48/45 nanobody D3 fused to hinge and Fc of human IgG1) (alpaca)
[2] = target: D4-Fc (anti-Pfs48/45 nanobody D4 fused to hinge and Fc of human IgG1) (alpaca)
[3] = target: F6-Fc (anti-Pfs48/45 nanobody F6 fused to hinge and Fc of human IgG1) (alpaca)
[4] = target: G3-Fc (anti-Pfs48/45 nanobody G3 fused to hinge and Fc of human IgG1) (alpaca)
[5] = target: H4-Fc (anti-Pfs48/45 nanobody H4 fused to hinge and Fc of human IgG1) (alpaca)
[6] = target: A4-Fc (anti-Pfs48/45 nanobody A4 fused to hinge and Fc of human IgG1) (alpaca)
[7] = target: B2-Fc (anti-Pfs48/45 nanobody B2 fused to hinge and Fc of human IgG1) (alpaca)
[8] = target: C1-Fc (anti-Pfs48/45 nanobody C1 fused to hinge and Fc of human IgG1) (alpaca)
[9] = target: C3-Fc (anti-Pfs48/45 nanobody C3 fused to hinge and Fc of human IgG1) (alpaca)
[10] = target: C7-Fc (anti-Pfs48/45 nanobody C7 fused to hinge and Fc of human IgG1) (alpaca)

Measured: binding result

B1: Full-length Pfs48/45 from P. falciparum NF54 iGP2 stage V gametocytes (natural protein)
chain: NNDFCKPSSLNSEISGFIGYKCNFSNEGVHNLKPDMRERRSIFCTIHSYFIYDKIRLIIPKKSSSPEFKILPEKCFQKVYTDYENRVETDISELGLIEYEIEENDTNPNYNERTITISPFSPKDIEFFCFCDNTEKVISSIEGRSAMVHVRVLKYPHNILFTNLTNDLFTYLPKTYNESNFVSNVLEVELNDGELFVLACELINKKCFQEGKEKALYKSNKIIYHKNLTIFKAPFYVTSKDVNTECTCKFKNNNYKIVLKPKYEKKVIHGCNFSSNVSSKHTFTDSLDISLVDDSAHISCNVHLSEPKYNHLVGLNCPGDIIPDCFFQVYQPESEELEPSNIVYLDSQINIGDIEYYEDAEGDDKIKLFGIVGSIPKTTSFTCICKKDKKSAYMTVTID
binds: all assays above
